Target: T1, rat/human corticotropin releasing factor (human and rat (same 41-residue sequence), C-terminal amide (NH2))
T1 peptide: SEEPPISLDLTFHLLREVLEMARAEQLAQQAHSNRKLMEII
Assay: binding assay, method not described

B1: purified human CRF-BP (native 37 kD protein purified from human plasma) (other)
chain: YLELREAADYDPFLLFSANLKRELAGEQPYRRALRCLDMLSLQGQFTFTADRPQLHCAAFFISEPEEFITIHYDQVSIDCQGGDFLKVFDGWILKGEKFPSSQDHPLPSAERYIDFCESGLSRRSIRSSQNVAMIFFRVHEPGNGFTLTIKTDPNLFPCNVISQTPNGKFTLVVPHQHRNCSFSIIYPVVIKISDLTLGHVNGLQLKKSSAGCEGIGDFVELLGGTGLDPSKMTPLADLCYPFHGPAQMKVGCDNTVVRMVSSGKHVNRVTFEYRQLEPYELENPNGNSIGEFCLSGL
B1 gave a Kd of 100 pM.

Source: patent US5733790, “CRF binding protein antibodies and assays using same” (The Salk Institute for Biological Studies, dated 1998)
